Reference: patent publication US5981488

Target: rat GLP-1 receptor (rat) (UniProt P32301)

Percent receptor affinities (cAMP production by the membrane preparation, fluorescent tracer-immuno assay) | Substance
16.6% | Met-8 GLP-1(7-36)NH2 (peptide)
2.8% | Thr-8 GLP-1(7-37)OH (peptide)
